This note sets out measurements from article PMC8938473 (2022).

For this assay, the target named is GST-BpfD-In (BpfD intracellular domains) (Shewanella putrefaciens CN32). In words: MST.

B1: His6-CRP (natural protein)
chain: MALIGKPKPDPTLEWFLSHCHIHKYPAKSTLIHAGEDSDTLYYIVKGSVAVLIKDEEGKEMILSYLNQGDFIGELGLFEEQAERTAWVRAKQACEIAEISYKKFKQLIQVNPEILMKLSAQMAYRLQSTSQKVGNLAFLDVAGRIAQTLLHLAKQPDAMTHPDGMQIKITRQEIGQIVGCSRETVGRILKMLEEQNLIQAHGKTIVVYGTR
modifications: labeled with NHS NT-647 dye (in the MST assay only)
Turning to B1, the Kd – broadly, the equilibrium constant for the complex coming apart – stood at 4.9 µM.
